According to article PMC10953043, “Fluorogenic Granzyme A Substrates Enable Real‐Time Imaging of Adaptive Immune Cell Activity” (Angewandte Chemie (Weinheim an Der Bergstrasse, Germany), 2023):

Substrate: CC[C@H](C)[C@H](NC(C)=O)C(=O)NCC(=O)N[C@@H](CC(N)=O)C(=O)N[C@@H](CCCNC(=N)N)C(=O)Nc1ccc(COc2ccc3c(c2)OC2=C(/C=C/C4=[N+](C)c5ccccc5C4(C)C)CCCC2=C3)cc1
Experiment: fluorogenic NIR assay, Michaelis-Menten fit
Format: biochemical, Homo sapiens
Conditions: Tris buffer pH 8, 37 °C, 20 nM hGzmA, cleaved after Arg

B1: human GzmA (hGzmA), active recombinant (Homo sapiens) (protein)
chain: IIGGNEVTPHSRPYMVLLSLDRKTICAGALIAKDWVLTAAHCNLNKRSQVILGAHSITREEPTKQIMLVKKEFPYPCYDPATREGDLKLLQLMEKAKINKYVTILHLPKKGDDVKPGTMCQVAGWGRTHNSASWSDTLREVNITIIDRKVCNDRNHYNFNPVIGMNMVCAGSLRGGRDSCNGDSGSPLLCEGVFRGVTSFGLENKCGDPRGPGVYILLSKKHLNWIIMTIKGAV
notes: active recombinant enzyme (not the pro-form), dimeric
- Km: 6.9±1.0×10^-6 M
- kcat: 0.26 ± 0.04 s⁻¹
